Experimental data as given in patent publication US11732048B2, “Anti-axl antagonistic antibodies” (BERGEN TEKNOLOGIOVERFØRING AS, priority 2016, dated 2023).
“Also recorded” adds a separate entry of the source.

How the values were obtained:
[1] = biological target: T1, mouse Axl (rmAxl-Fc chimera; Mm-Axl-Fc) (Mus musculus, UniProt Q00993); experiment: Biacore binding analysis on immobilised mouse Axl
T1 construct: The soluble recombinant antigens corresponding to human Axl (rhAxl-Fc chimera; R&D Systems, Cat. no; 154-AL), mouse Axl (rmAxl-Fc chimera; Fc; purchased R&D Systems 854-AX
T1 sequence (Q00993 19-445 limits assumed, change not shown): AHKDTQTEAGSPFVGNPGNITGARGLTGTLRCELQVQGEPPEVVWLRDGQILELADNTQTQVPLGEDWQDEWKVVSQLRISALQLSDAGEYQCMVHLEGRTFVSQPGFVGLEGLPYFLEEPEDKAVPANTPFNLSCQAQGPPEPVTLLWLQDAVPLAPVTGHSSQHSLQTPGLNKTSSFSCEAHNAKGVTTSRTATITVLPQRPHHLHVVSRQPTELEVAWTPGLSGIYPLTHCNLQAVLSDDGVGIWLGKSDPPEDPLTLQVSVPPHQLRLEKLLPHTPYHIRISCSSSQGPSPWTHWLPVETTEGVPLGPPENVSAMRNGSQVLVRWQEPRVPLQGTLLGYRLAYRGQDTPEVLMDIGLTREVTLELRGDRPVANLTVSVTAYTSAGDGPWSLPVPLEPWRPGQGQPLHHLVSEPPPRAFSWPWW
Experimental: The binding experiments were performed using Biacore 3000 instrument (GE Healthcare) at 25° C. The soluble recombinant antigens corresponding to human Axl (rhAxl-Fc chimera; R&D Systems, Cat. no. 154-AL), mouse Axl (rmAxl-Fc chimera; R&D Systems, R&D Systems; Cat. no. 854-AX) and human Tyro3 (rhTyro3/Dtk-Fc chimera; R&D Systems, Cat. no. 859-DK) were immobilized on the surface of CM5 sensor chip using amine coupling at the surface density of 1,308.0, 2,115.9 and 1,429.0 RU, respectively. The Biacore runs were performed in an automatic mode using Binding analysis wizard.
The sample containing MAb 10G5 or recombinant mouse (rm) Axl-ligand Gas6 (R&D Systems, Cat. no. 986-GS/CF) at concentration 10 μg/mL in HBS-EP buffer (GE Healthcare) was injected over the surfaces with immobilized antigens at flow rate of 30 μL/min for 3 min (association) followed by 5 min dissociation.
Sensor chip with immobilised Axl: Hs-Axl-Fc (638.2 RU), Mm-Axl-Fc (334.5 RU), Rhe-Axl-Fc (350.2 RU)
All tests were performed in parallel on Hs-Axl-Fc, Mm-Axl-Fc and Rhe-Axl-Fc surfaces.

MDA-MB-231 cells = experiment: Three-dimensional (3D) organotypic tumour mass model; format: cell-based, human
Experimental: A highly aggressive triple-negative human breast cancer cell line MDA-MB-231 (ATCC® HTB-26™) was cultured according to recommended conditions in Dulbecco's Modified Eagle's Medium/Nutrient Mixture F-12 Ham medium supplemented with 10% foetal bovine serum (FBS), glutamine and penicillin and streptomycin. The cells were pre-treated in suspension for at least 1 hour at 37° C., to ensure proper binding of antibodies on the cell surface before they were placed in extracellular matrix. The cells cultures were observed every day and fresh treatments were done every other day. The antibodies were used at concentrations 50-100 μg/mL. Imaging of coverslip 3D assay (35 mm dish) was done on a NIKON light microscopy using both Phase contrast and Hoffman optics. Already at day 3, difference in growth of cells treated with MAb10G5 and cells treated with a control irrelevant IgG was observed.
MDA-MB-231 cells were grown on extracellular matrix and allowed to form the highly aggressive stellate shaped morphology. Stellate-shaped tumour masses were then treated with the control IgG and antibody 10G5, as described in EXAMPLE 7.

[2] = biological target: T2, Axl receptor protein in MBA-MD-231 cells (Homo sapiens, UniProt P30530); experiment: Western blot of Axl receptor protein after antibody treatment; format: cell-based; conditions: 100 μg/mL, 20 hrs, versus irrelevant IgG or MAb #3
T2 construct: The expression of Axl receptor protein in MBA-MD-231 cells treated with different antibodies was examined by Western blot analysis; endogenous in cells; host or cells: MDA-MB-231 (printed 'MBA-MD-231') human breast carcinoma cells
Experimental: The expression of Axl receptor protein in MBA-MD-231 cells treated with different antibodies was examined by Western blot analysis. The cells were seeded in a 6-well plate at density of 5×10^5 cells per well and cultured overnight before treatment initiation. The cells were treated for 20 hrs in the presence of isotype control (mouse IgG2b), anti-Axl antibodies (10G5 and MAb #3) at concentrations of 100 μg/mL or multikinase inhibitor Foretinib (targets Met, Ron, Axl, Tie-2, and VEGFR2) at a concentration of 0.5 μM followed by harvesting by centrifugation at 1,200 rpm for 5 min and washing with sterile PBS. The cells were collected by centrifugation and resuspended in NP40-lysis buffer followed by 30 min incubation on ice. The cell lysates were cleared by centrifugation (12,000 rpm, 4° C., 5 min) and the protein concentrations were determined using BCA protein assay. The cell lysate samples comprising 35 μg of total protein were denatured in presence of the reducing agent (Life Technologies) and loaded into the wells of NuPAGE 10% Bis-Tris polyacrylamide (PAA) gel, 1.0 mm×12 well (Invitrogen). The electrophoresis was performed using Bis-Tris SDS running buffer under the recommended conditions (Life Technologies) and the proteins were transfer on PVDF membrane, as described for 2 gels in a manual for XCell II™ Blot Module (Invitrogen) using the transfer buffer with 20% methanol. […]

[3] = test system: Axl signalling (phosphorylation of Akt on Ser473) in HeLa cells; experiment: Gas6-induced Axl downstream signalling, phospho-Akt (Ser473) Western blot; format: cell-based, human; conditions: pre-incubation 1 μg/mL 1 hr, then mouse Gas6 10 μg/mL 20 min
Experimental: The experiments were performed using human cervical cancer derived cell line HeLa (ATCC® CCL-2™). The cells were grown in T175 flasks to 80% confluency in MEM culture medium (Sigma) supplemented with 10% FBS, penicillin-streptomycin and L-glutamine. The cells were washed with PBS and detached by treatment with 0.25% Trypsin/EDTA (Sigma) followed by centrifugation and resuspension in fresh medium (MEM/0.5% FBS). The cells were seeded in Petri dishes (3×10^6 cells per dish) in MEM medium supplemented with 10% FBS. After three hrs incubation at 37° C., the cells were washed with PBS and kept in starvation medium (MEM/0.5% FBS) overnight. The cells were pre-incubated with anti-Axl antibody 10G5 at concentration 1 μg/mL for 1 hr followed by stimulation with Axl ligand, recombinant mouse Gas6 (R&D Systems), at concentration 10 μg/mL for 20 min. […] Detection with anti-GAPDH antibody (Millipore) was used as loading control.

A549 tumours = experiment: A549 human NSCLC xenograft in mice (Examples 14, 16, 17, 18); format: in vivo, mouse; conditions: nude mice, 20 mg/kg i.p. twice weekly, after four weeks of treatment, versus vehicle
Description: SCID mice were implanted subcutaneously (s.c.) into the flank with 5×10^6 A549 cells resuspended in serum-free medium/Matrigel (1:1).

Binding to mouse Axl [1] | Molecule | Effect on established stellate-shaped 3D tumour masses (MDA-MB-231 cells; 9-days old organoid masses treated 72 hours, versus control IgG) | Growth and tumour mass development in extracellular matrix (MDA-MB-231 cells; antibody 50-100 μg/mL, day 6, versus control IgG) | Axl receptor protein level [2] | Gas6-induced phosphorylation of Akt on Ser473 [3] | Inhibition of A549 tumour growth (A549 tumours)
no significant binding | murine 10G5: mouse monoclonal anti-human Axl antibody from hybridoma WR-10G5-E5; VH SEQ ID NO: 28, VL SEQ ID NO: 29 (antibody, listed as Mus musculus, V domains shown, (1)..(118) Mus musculus 10G5 VH domain; (1)..(112) Mus musculus 10G5 VL domain) VH: QVQLQQSGAELVRPGASVKLSCKASGYSFTDFYINWVRQRPGQGLEWIARIFPGGDNTYYNEKFKGKATLTAEESSSTAYIQLSSLTSEDSAVYFCARRGLYYAMDYWGQGISVTVSS VL: DVLMTQTPLSLPVSLGDQASISCRSSQSLVHSNGIPYLHWYLQKPGQSPKLLIYRVSNRFSGVPDRFSGSGSGTDFTLKISRVEAEDLGVYFCSQGTHVPPTFGGGTKLEIK | caused degradation of stellate patterns | significantly inhibited growth and tumour mass development | significant reduction in the amount of Axl receptor protein | significantly reduces; also recorded: significantly be reduced | 
 | c10G5: chimeric (mouse variable/human constant) IgG1 antibody with the 10G5 VH and VL (antibody, V domains shown) VH: QVQLQQSGAELVRPGASVKLSCKASGYSFTDFYINWVRQRPGQGLEWIARIFPGGDNTYYNEKFKGKATLTAEESSSTAYIQLSSLTSEDSAVYFCARRGLYYAMDYWGQGISVTVSS VL: DVLMTQTPLSLPVSLGDQASISCRSSQSLVHSNGIPYLHWYLQKPGQSPKLLIYRVSNRFSGVPDRFSGSGSGTDFTLKISRVEAEDLGVYFCSQGTHVPPTFGGGTKLEIK |  |  |  |  | around 40%
